Experimental data as given in patent US20110145941A1 (LAY LINE GENOMICS S P A, published 2011).

Assays:
[1] = target: T1, human TrkA receptor on the cell surface (human, UniProt P04629 33-796); assay: flow cytometry on TF-1 cells, control immunoglobulin
[2] = target: T1, human TrkA receptor on the cell surface; assay: flow cytometry on TF-1 cells, 4 µg/ml; parameters: Geo Mean Fluorescence: reference not given here
TrkA-IgG [3] = target: T2, TrkA-IgG (UniProt P04629 33-423, limits assumed); assay: SPR (BIACORE 2000), TrkA-IgG immobilised on CM-5 chip, 'separated 1:1' fit
T2 construct: also called specific antigen TrkA-IgG; not shown: IgG part of the fusion
Description: Surface plasmon resonance analysis was used to measure the association and dissociation rate constants for binding kinetics of the different antibodies (murine, chimeric, 5 humanised variants) towards TrkA-IgG using BIACORE 2000 (Biacore AB, Uppsala, Sweden). TrkA-IgG was immobilised on a CM-5 sensor chip according to manufacturer's conditions, in a way to achieve an immobilization density of 1100 RU. Each antibody sample was analyzed in antibody concentration ranges of 20-0.63 μg/ml. Calculations from the sensograms were performed by using the BIA evaluation version 3 (1999) software.
Analysis of the individual sets of sensograms was performed with the BIA evaluation version 3 (1999) software. Among the different models tested to fit the kinetics data, the best fitting was obtained with the “separated 1:1” algorithm. In this model, only a defined range of the early association and dissociation curves was used for the calculation.

[4] = target: T1, human TrkA receptor on the cell surface; assay: cell-based or functional assay
TrkA-IgG [5] = target: T2, TrkA-IgG; assay: SPR (BIACORE 2000), TrkA-IgG immobilised on CM-5 chip, 'separated 1:1' fit; separate experiment

T1 sequence (P04629 33-796): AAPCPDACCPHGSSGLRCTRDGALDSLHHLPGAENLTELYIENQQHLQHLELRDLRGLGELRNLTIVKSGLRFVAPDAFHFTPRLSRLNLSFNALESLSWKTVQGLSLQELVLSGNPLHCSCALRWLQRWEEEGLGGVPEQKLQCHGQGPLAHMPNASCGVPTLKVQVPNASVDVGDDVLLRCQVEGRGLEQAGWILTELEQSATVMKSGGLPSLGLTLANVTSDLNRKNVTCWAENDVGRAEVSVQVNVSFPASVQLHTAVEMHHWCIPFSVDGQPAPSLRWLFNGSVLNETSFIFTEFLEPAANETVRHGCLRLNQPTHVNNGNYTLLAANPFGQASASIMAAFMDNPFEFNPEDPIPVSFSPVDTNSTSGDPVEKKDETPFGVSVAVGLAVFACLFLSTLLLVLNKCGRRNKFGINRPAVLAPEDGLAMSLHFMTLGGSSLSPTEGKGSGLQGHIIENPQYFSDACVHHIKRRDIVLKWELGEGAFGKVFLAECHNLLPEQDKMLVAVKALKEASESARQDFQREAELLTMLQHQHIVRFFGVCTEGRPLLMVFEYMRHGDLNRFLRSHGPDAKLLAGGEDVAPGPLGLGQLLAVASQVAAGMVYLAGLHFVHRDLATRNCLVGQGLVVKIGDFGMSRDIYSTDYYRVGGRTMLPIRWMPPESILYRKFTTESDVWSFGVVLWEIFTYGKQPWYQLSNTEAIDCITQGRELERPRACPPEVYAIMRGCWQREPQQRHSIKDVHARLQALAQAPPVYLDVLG
T2 sequence (P04629 33-423 limits assumed): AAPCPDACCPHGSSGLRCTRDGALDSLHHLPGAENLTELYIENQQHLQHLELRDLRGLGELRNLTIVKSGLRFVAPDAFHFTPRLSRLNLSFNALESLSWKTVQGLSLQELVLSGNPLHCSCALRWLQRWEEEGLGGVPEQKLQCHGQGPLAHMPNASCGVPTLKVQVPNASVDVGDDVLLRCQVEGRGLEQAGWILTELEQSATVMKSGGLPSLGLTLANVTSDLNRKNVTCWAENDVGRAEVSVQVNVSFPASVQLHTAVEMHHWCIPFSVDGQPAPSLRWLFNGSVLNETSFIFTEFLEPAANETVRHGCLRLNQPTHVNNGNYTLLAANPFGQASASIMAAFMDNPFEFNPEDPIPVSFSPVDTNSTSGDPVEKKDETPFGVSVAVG

Molecule	Fold Increase [1]	Geo Mean Fluorescence [1]	Fold Increase [2]	Geo Mean Fluorescence [2]	Kd (TrkA-IgG [3])	koff (TrkA-IgG [3])	kon (TrkA-IgG [3])	Proliferation assay on TF1 cells IC50 (µg/ml), EXP-1 [4]	Proliferation assay on TF1 cells IC50 (µg/ml), EXP-2 [4]	Kd (TrkA-IgG [5])	koff (TrkA-IgG [5])	kon (TrkA-IgG [5])	Proliferation assay on TF1 cells IC50 (µg/ml), Mean [4]
HuMNACWOv (antibody, V domains shown, Variant of HuMNACWO whose heavy chain CDR3 is replaced with that of muMNACEP; also called hVHWOv/hVLWO; HuVHWOv/HuVLWO) VH: EVQLLESGGGLVQPGGSLRLSCAASGFTFSTYTMSWARQAPGKGLEWVAYISKGGGSTYYPDTVKGRFTISRDNSKNTLYLQMNSLRAEDSAVYYCARGAMYGNDFFYPMDYWGQGTLVTVSS VL: DIVLTQSPSSLSASVGDRVTITCSASSSVSYMHWYQQKPGQAPKLLIYTTSNLASGVPSRFSGSGSGTDYTLTISSLQPEDVATYYCHQWSSYPWTFGGGTKVEIK	–	–	2.6 fold	8.9	2.48 nM	0.00386 s⁻¹	1.62e+06 M⁻¹ s⁻¹	–	–	–	–	–	–
HuMNACWO (antibody, V domains shown, Prior art humanised antibody; also called humanised antibody MNAC13 disclosed in WO 05/061540; HuVHWO/HuVLWO) VH: EVQLLESGGGLVQPGGSLRLSCAASGFTFSTYTMSWARQAPGKGLEWVAYISKGGGSTYYPDTVKGRFTISRDNSKNTLYLQMNSLRAEDSAVYYCARGAMFGNDFFFPMDRWGQGTLVTVSS VL: DIVLTQSPSSLSASVGDRVTITCSASSSVSYMHWYQQKPGQAPKLLIYTTSNLASGVPSRFSGSGSGTDYTLTISSLQPEDVATYYCHQWSSYPWTFGGGTKVEIK	–	–	–	–	–	–	–	–	–	41.8 nM	0.0309 s⁻¹	739000 M⁻¹ s⁻¹	–
muMNACEP (antibody, V domains shown, Murine monoclonal antibody as disclosed in EP1181318; also called murine antibody MNAC13; MNAC13) VH: EVKLMESGGGLVQPGGSLKLSCAASGFTFSTYTMSWARQTPEKRLEWVAYISKGGGSTYYPDTVKGRFTISRDNAKNTLYLQMSSLKSEDTALYYCARGAMYGNDFFYPMDYWGQQTSVTVSS VL: DIVLSQSPAIMSASLGEEITLTCSASSSVSYMHWYQQKSGTSPKLLITTTSNLASGVPSRFSGSGSGTFYSLTISSVEAEDAADYYCHQWSSYPWTFGGGTKLEIK	–	–	–	–	0.25 nM	0.000167 s⁻¹	850000 M⁻¹ s⁻¹	–	–	–	–	–	0.54 µg/mL

Second part, the molecule after the results:

Fold Increase [1]	Geo Mean Fluorescence [1]	Fold Increase [2]	Geo Mean Fluorescence [2]	Kd (TrkA-IgG [3])	koff (TrkA-IgG [3])	kon (TrkA-IgG [3])	Proliferation assay on TF1 cells IC50 (µg/ml), EXP-1 [4]	Proliferation assay on TF1 cells IC50 (µg/ml), EXP-2 [4]	Kd (TrkA-IgG [5])	koff (TrkA-IgG [5])	kon (TrkA-IgG [5])	Proliferation assay on TF1 cells IC50 (µg/ml), Mean [4]	Molecule
1 fold	3.5	–	–	–	–	–	–	–	–	–	–	–	Human IgG1 standard control (antibody)
–	–	3.6 fold	12.6	1.45 nM	0.000442 s⁻¹	325000 M⁻¹ s⁻¹	0.41 µg/mL	2.38 µg/mL	–	–	–	–	BXhVH3VL3 (antibody, human IgG1, V domains shown, Human IgG1 constant regions (IgG1 expression vectors); also called hVH3/hVL3) VH: EVQLLESGGGLVQPGGSLRLSCAASGFTFSTYTMSWVRQAPGKRLEWVAYISKGGGSTYYPDTVKGRFTISRDNSKNTLYLQMNSLRAEDTAVYYCARGAMYGNDFFYPMDYWGQGTTVTVSS VL: QIVLTQSPATLSLSPGERATLSCSASSSVSYMHWYQQKPGQSPRLLIYTTSNLASGIPSRFSGSGSGTFYTLTISSLEPEDFAVYYCHQWSSYPWTFGGGTKLEIK
–	–	3.9 fold	13.7	0.662 nM	0.000638 s⁻¹	1e+06 M⁻¹ s⁻¹	1.4 µg/mL	1.21 µg/mL	–	–	–	–	BXhVH5VL3 (antibody, human IgG1, V domains shown, Human IgG1 constant regions (IgG1 expression vectors); also called hVH5/hVL3) VH: EVKLLESGGGLVQPGGSLRLSCAASGFTFSTYTMSWVRQTPGKRLEWVAYISKGGGSTYYPDTVKGRFTISRDNSKNTLYLQMNSLRAEDTAVYYCARGAMYGNDFFYPMDYWGQGTTVTVSS VL: QIVLTQSPATLSLSPGERATLSCSASSSVSYMHWYQQKPGQSPRLLIYTTSNLASGIPSRFSGSGSGTFYTLTISSLEPEDFAVYYCHQWSSYPWTFGGGTKLEIK
–	–	3.2 fold	11	0.151 nM	–	–	0.06 µg/mL	0.58 µg/mL	–	–	–	–	ChimMNAC13 (antibody, V domains shown, Corresponds to muMNACEP but has human constant regions instead of mouse constant regions; also called chimNINAC13; mVHEP/mVLEP) VH: EVKLMESGGGLVQPGGSLKLSCAASGFTFSTYTMSWARQTPEKRLEWVAYISKGGGSTYYPDTVKGRFTISRDNAKNTLYLQMSSLKSEDTALYYCARGAMYGNDFFYPMDYWGQQTSVTVSS VL: DIVLSQSPAIMSASLGEEITLTCSASSSVSYMHWYQQKSGTSPKLLITTTSNLASGVPSRFSGSGSGTFYSLTISSVEAEDAADYYCHQWSSYPWTFGGGTKLEIK
